Each block holds one molecule with its values, some of them ahead of it.
Experiments:
[1] = test system: patient with adult periodontitis; test: Treatment of patient with periodontal disease prior to dental implant therapy; assay type: in vivo, human; settings: person, 20 μg once-daily subcutaneous for 3 months prior to implant surgery
Text: A person presents with a history of adult periodontitis. The patient has experienced significant alveolar bone loss confirmed radiographically, and has a number of tooth sites with pocket probing depth measurements of about 7 mm. The patient has discussed with their dentist possible extraction of severely-affected teeth and their replacement with dental implants, but the prospects for success are diminished in view of the bone loss that has occurred. Standard periodontal care is provided, including scaling and root planning, and those teeth with poor prognosis are extracted. Prior to implant surgery, the patient is administered 20 μg of hPTH(1-34) once-daily by subcutaneous injection for 3 months prior to implant surgery.

[2] = test system: systemic bone loss associated with osteoporosis; settings: R. M. Neer et al., NEJM 2001; cited from earlier work

complications post placement of the implants [1]: No complications
Molecule: CC[C@H](C)[C@H](NC(=O)[C@H](CCC(=O)O)NC(=O)[C@H](CO)NC(=O)[C@@H](NC(=O)[C@@H](N)CO)C(C)C)C(=O)N[C@@H](CCC(N)=O)C(=O)N[C@@H](CC(C)C)C(=O)N[C@@H](CCSC)C(=O)N[C@@H](Cc1cnc[nH]1)C(=O)N[C@@H](CC(N)=O)C(=O)N[C@@H](CC(C)C)C(=O)NCC(=O)N[C@@H](CCCCN)C(=O)N[C@@H](Cc1cnc[nH]1)C(=O)N[C@@H](CC(C)C)C(=O)N[C@@H](CC(N)=O)C(=O)N[C@@H](CO)C(=O)N[C@@H](CCSC)C(=O)N[C@@H](CCC(=O)O)C(=O)N[C@@H](CCCN=C(N)N)C(=O)N[C@H](C(=O)N[C@@H](CCC(=O)O)C(=O)N[C@@H](Cc1c[nH]c2ccccc12)C(=O)N[C@@H](CC(C)C)C(=O)N[C@@H](CCCN=C(N)N)C(=O)N[C@@H](CCCCN)C(=O)N[C@@H](CCCCN)C(=O)N[C@@H](CC(C)C)C(=O)N[C@@H](CCC(N)=O)C(=O)N[C@@H](CC(=O)O)C(=O)N[C@H](C(=O)N[C@@H](Cc1cnc[nH]1)C(=O)N[C@@H](CC(N)=O)C(=O)N[C@@H](Cc1ccccc1)C(=O)O)C(C)C)C(C)C [hPTH(1-34), human PTH(1-34)]

B1: parathyroid hormone (peptide, UniProt P01270 32-115, looked up)
Parathyroid hormone: SVSEIQLMHNLGKHLNSMERVEWLRKKLQDVHNFVALGAPLAPRDAGSQRPRKKEDNVLVESHEKSLGEADKADVNVLTKAKSQ
modifications: Parathyroid hormone
BMD [2]: increases BMD
risk of vertebral and non-vertebral bone fracture [2]: reduces the risk of vertebral and non-vertebral bone fracture
